US20180086841A1 (Merck Sharp & Dohme, published 2018)
Changes are numbered by the printed parent chain.

Legend:
Experiment in all cases: flow cytometry on CHO-K1 transfectants, right sub-column
[1] = biological target: T1, F28A
T1 construct: also called hCD27 F28A
T1 receptor chain: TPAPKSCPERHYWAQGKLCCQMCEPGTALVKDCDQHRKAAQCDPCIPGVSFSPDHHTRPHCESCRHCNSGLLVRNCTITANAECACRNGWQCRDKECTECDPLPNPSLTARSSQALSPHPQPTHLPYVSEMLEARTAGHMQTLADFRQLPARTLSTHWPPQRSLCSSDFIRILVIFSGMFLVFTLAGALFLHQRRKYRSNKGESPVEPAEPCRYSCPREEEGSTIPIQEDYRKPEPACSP
Experimental: (§1) The hCD27 variants that were tested are listed. Amino acids correspond to the UniProt P26842-1 sequence. Amino acids 1-20 constitute the signal peptide. Binding is expressed as the geometric mean of the FITC signal, relative to antibody binding to hCD27, which was set at 100%.
(§2) The ability of several anti-hCD27 antibodies to bind to a series of hCD27 alanine mutants was determined using CHO-K1 cells, transiently transfected pCI-neo empty vector, pCI-neo.hCD27 and several pCI-neo.CD27Ala mutant constructs.
(§3) Detached cells were transferred to 96 wells round-bottomed well plates at approximately 1.2×10⁵ cells/well. After spinning down the cells, discarding the supernatants and re-suspending the cells in the residual volume, the primary antibodies were added and incubated for 30 minutes at 4° C. Cells were washed three times with DPBS/BSA 1%, followed by centrifugation, discarding of the supernatants and re-suspension in the residual volume. […] After washing once, antibody binding was detected using the HTS plate reader (FACS Canto II) and FlowJo software for data analysis. Debris, dead cells and doublets were excluded from the analysis. Binding was expressed as the geometric mean of the FITC signal, relative to antibody binding to hCD27, which was set at 100%.

[2] = biological target: T2, R10A
T2 construct: also called hCD27 R10A
T2 receptor chain: T1 receptor chain with R10A, A28F
Experimental: as §1, §2, §3

[3] = biological target: T3, V30A
T3 construct: also called hCD27 V30A
T3 receptor chain: T1 receptor chain with A28F, V30A
Experimental: as §1, §2, §3

[4] = biological target: T4, Q41A
T4 construct: also called hCD27 Q41A
T4 receptor chain: T1 receptor chain with A28F, Q41A
Experimental: as §1, §2, §3

[5] = biological target: T5, S63A
T5 construct: also called hCD27 S63A
T5 receptor chain: T1 receptor chain with A28F, S63A
Experimental: as §1, §2, §3

[6] = biological target: T6, R87A
T6 construct: also called hCD27 R87A
T6 receptor chain: T1 receptor chain with A28F, R87A
Experimental: as §1, §2, §3

[7] = biological target: T7, V49A
T7 construct: also called hCD27 V49A
T7 receptor chain: T1 receptor chain with A28F, V49A
Experimental: as §1, §2, §3

[8] = biological target: T8, I46A
T8 construct: also called hCD27 I46A
T8 receptor chain: T1 receptor chain with A28F, I46A
Experimental: as §1, §2, §3

[9] = biological target: T9, R93A
T9 construct: also called hCD27 R93A
T9 receptor chain: T1 receptor chain with A28F, R93A
Experimental: as §1, §2, §3

[10] = biological target: T10, E9A
T10 construct: also called hCD27 E9A
T10 receptor chain: T1 receptor chain with E9A, A28F
Experimental: as §1, §2, §3

B1: hCD27.131A (mouse parental 131A) (antibody, mouse IgG1, V domains shown)
VH: QIQLVQSGPELKKPGETVKISCKASGYTFTNYGMNWVKQAPGKGLKWMGWINTNTGEPTYAEEFKGRFAFSLETSATTAYLQINNLKNEDTATYFCAREGDAMDYWGQGTSVTVSS
VL: QIVLTQSPAIMSASPGEKVTMTCSASSSVSYMHWYQQKSGTSPKRWIYDTSKLASGVPARFSGSGSGTSYSLTISSMEAEDAATYYCQQWNSYPFTFGSGTKLEIK
notes: Mouse IgG1 antibody; also called mouse hCD27.131A
binding, WT hCD27 = 100 (GM FITC) [1]: 57.1% | binding, WT hCD27 = 100 (GM FITC) [2]: 108% | binding, WT hCD27 = 100 (GM FITC) [3]: 94% | binding, WT hCD27 = 100 (GM FITC) [4]: 80.5% | binding, WT hCD27 = 100 (GM FITC) [5]: 141% | binding, WT hCD27 = 100 (GM FITC) [6]: 111% | binding, WT hCD27 = 100 (GM FITC) [7]: 99.8% | binding, WT hCD27 = 100 (GM FITC) [8]: 75% | binding, WT hCD27 = 100 (GM FITC) [9]: 90% | binding, WT hCD27 = 100 (GM FITC) [10]: 132%
